Data reported in US8697117B2, “Drug-eluting films” (Ramot at Tel-Aviv University Ltd., priority 2010, dated 2014).
Where “and” joins values, the source holds several entries; their conditions need not be identical. Identical values can stand only once. Each block holds one compound with its values, some of them ahead of it.

Assays:
Assay type in all cases: physicochemical
[1] = Morphological characterization of porous films by SEM (mean pore diameter, porosity)
Experimental: The morphology of the porous films (cryogenically fractured surfaces) was observed by scanning electron microscopy (SEM) using a JEOL JSM-6300 microscope at an accelerating voltage of 5 kV. The SEM samples were Au-sputtered prior to observation. The mean pore diameter (n=100 small pores or 50 large pores) and porosity of the observed morphologies were analyzed using the Sigma Scan Pro software, and statistics were calculated using SPSS 10 software. Statistical significance was determined based on ANOVA (Tukey-Kramer). The area occupied by the pores was calculated for each SEM fractograph using Sigma Scan Pro software in order to evaluate the porosity of the samples. Porosity was determined as the area occupied by the pores divided by the total area.

[2] = In vitro drug release from films in PBS at 37° C. (HPLC); details: for time at which the drug was almost fully released: antibiotic-loaded 50:50 PDLGA films, O:A 6:1, 2% drug
Experimental: Small films of 1.5 cm by 0.5 cm, were immersed in phosphate buffered saline (PBS) at 37° C. for 70 days in order to determine the various drug release kinetics therefrom in four repetitions. The release studies were conducted in closed glass tubes containing 3.0 ml PBS medium. The medium was removed completely at various time points, and at each sampling time fresh medium was introduced. The medium's drug concentration was determined using Jasco High Performance Liquid Chromatography (HPLC) with a UV 2075 plus detector and a reverse phase column kept at 25° C.

[3] = Encapsulation efficiency of the loaded agent in the films
[4] = In vitro HRP release from porous films in PBS at 37° C. (micro BCA)
Experimental: Small 1.5 cm by 2.0 cm films (four samples) were immersed in phosphate-buffered saline (PBS) at 37° C. for 28 days in order to determine the HRP release kinetics from these structures. The release studies were conducted in closed glass tubes containing 2.0 ml PBS medium. The medium was removed (completely) periodically, at each sampling time, and fresh medium was introduced. Sampling was carried out at 0.5, 1, 2, 3, 7, 14, 21 and 28 days.
The HRP concentration of each medium sample was determined using the micro BCA assay method, by measuring absorbance at 562 nm, using a SpectraMax 340 PC^384 plate reader spectrophotometer. Cumulative HRP release profiles were determined relative to the initial amount of HRP in the composite fibers (HRP released during the incubation period+the residue remaining in the fibers). Four repetitions were performed for each sample, and the results are presented as means±one standard deviation.

[5] = 5% w/v BSA film versus film with no surfactant, 28000 rpm
[6] = drug-loaded 50:50 PDLGA 17.5% w/v film, no surfactant, 28 000 rpm
[7] = drug-loaded film, BSA (5%), 28 000 rpm
[8] = drug-loaded film, BSA (5%), 28 000 rpm, listed as paclitaxel
[9] = drug-loaded film, BSA (1%), 14 000 rpm
[10] = drug-loaded film, BSA (1%), 28 000 rpm
[11] = drug-loaded film, no surfactant, 14 000 rpm
[12] = HRP film, reference formulation A (1.0% w/w HRP, 17.5% w/v, O:A 4:1, 50/50, 83 kDa)
[13] = as reference formulation A but 0.5% w/w HRP
[14] = as reference formulation A but 2.0% w/w HRP
[15] = as reference formulation A but 15% w/v polymer
[16] = as reference formulation A but 20% w/v polymer
[17] = as reference formulation A but 25% w/v polymer
[18] = as reference formulation A but 75/25 PDLGA
[19] = as reference formulation A but O:A 2:1
[20] = as reference formulation A but O:A 6:1
[21] = as reference formulation A but O:A 8:1
[22] = as reference formulation A but polymer initial MW 50 kDa
[23] = as reference formulation A but polymer initial MW 185 kDa

- Mean pore diameter ± SD ([1]; film from reference formulation B with 5% of the named surfactant, 28000 rpm for 120 seconds): 1.5 μm and 1.5 ± 0.4 μm
Compound: Sorbitan monooleate [Span 80]

- effect of BSA (fine nanostructure) on burst effect [2, 5]: did not significantly affect
- effect of BSA (fine nanostructure) on release rate [2, 5]: only a slight increase
- Mean pore diameter [1, 6]: 2.6 ± 0.8 μm
- Porosity [1, 6]: 81.5 ± 3.8%
- Mean pore diameter [1, 7]: 0.6 ± 0.1 μm
- Porosity [1, 7]: 74.8 ± 3.2%
- Mean pore diameter [1, 8]: 0.6 μm
- Encapsulation efficiency [3, 6]: 52.8 ± 0.6%
- Encapsulation efficiency ([3]; drug-loaded 50:50 PDLGA 17.5% w/v film, no surfactant, 28 000 rpm, listed as paclitaxel): 53%
- Encapsulation efficiency [3, 7]: 35.6 ± 2.9%
- Encapsulation efficiency [3, 8]: 35%
Compound: CC(=O)O[C@H]1C(=O)[C@@]2(C)[C@H]([C@H](OC(=O)c3ccccc3)[C@]3(O)C[C@H](OC(=O)[C@H](O)[C@@H](NC(=O)c4ccccc4)c4ccccc4)C(C)=C1C3(C)C)[C@]1(OC(C)=O)CO[C@@H]1C[C@@H]2O [Paclitaxel]

- time at which the drug was almost fully released [2]: ≤ 3 days
- Mean pore diameter [1, 6]: 1.1 ± 0.4 μm
- Porosity [1, 6]: 77.6 ± 2.2%
- Mean pore diameter [1, 9]: 1.5 ± 0.5 μm
- Porosity [1, 9]: 75.4 ± 0.5%
- Mean pore diameter [1, 10]: 0.7 ± 0.2 μm
- Porosity [1, 10]: 75.6 ± 0.5%
- Mean pore diameter [1, 11]: 1.8 ± 0.7 μm
- Porosity [1, 11]: 80.5 ± 3.0%
- Encapsulation efficiency [3, 6]: 37.0 ± 1.9%
- Encapsulation efficiency [3, 9]: 58.4 ± 2.3%
- Encapsulation efficiency [3, 10]: 50.7 ± 0.5%
- Encapsulation efficiency [3, 11]: 41.7 ± 1.6%
Compound: CC(C)(O/N=C(\C(=O)N[C@@H]1C(=O)N2C(C(=O)[O-])=C(C[n+]3ccccc3)CS[C@H]12)c1csc(N)n1)C(=O)O [Ceftazidime hydrate, ceftazidime hydrate]

Compound: HRP: Horseradish peroxidase, 44 kDa; served as a surfactant and a protein-type biomolecule model
- Mean large pore diameter [1, 12]: 17.1 ± 2.7 μm
- Mean small pore diameter [1, 12]: 4.3 ± 0.8 μm
- Porosity [1, 12]: 86.9 ± 2.6%
- Mean large pore diameter [1, 13]: 16.0 ± 1.6 μm
- Mean small pore diameter [1, 13]: 4.5 ± 1.3 μm
- Porosity [1, 13]: 88.6 ± 1.4%
- Mean large pore diameter [1, 14]: 16.0 ± 1.4 μm
- Mean small pore diameter [1, 14]: 3.9 ± 0.4 μm
- Porosity [1, 14]: 85.4 ± 2.2%
- Mean small pore diameter [1, 15]: 5.5 μm and 5.5 ± 1.1 μm
- Porosity [1, 15]: 88.2 ± 2.9%
- Mean large pore diameter [1, 16]: 16.1 ± 2.3 μm
- Mean small pore diameter [1, 16]: 3.2 ± 0.5 μm
- Porosity [1, 16]: 85.8 ± 2.9%
- Mean large pore diameter [1, 17]: 17.1 ± 1.9 μm
- Mean small pore diameter [1, 17]: 1.5 μm and 1.5 ± 0.2 μm
- Porosity [1, 17]: 82.2 ± 3.3%
- Mean large pore diameter [1, 18]: 16.6 ± 3.6 μm
- Mean small pore diameter [1, 18]: 5.9 ± 0.8 μm
- Porosity [1, 18]: 89.2 ± 0.8%
- Mean large pore diameter [1, 19]: 17.3 ± 3.3 μm
- Mean small pore diameter [1, 19]: 4.7 μm and 4.7 ± 1.0 μm
- Porosity [1, 19]: 92.5% and 92.5 ± 1.0%
- Mean large pore diameter [1, 20]: 18.0 ± 3.8 μm
- Mean small pore diameter [1, 20]: 3.0 ± 0.6 μm
- Porosity [1, 20]: 82.1 ± 1.6%
- Mean large pore diameter [1, 21]: 17.2 ± 2.1 μm
- Mean small pore diameter [1, 21]: 2.3 μm and 2.3 ± 0.4 μm
- Porosity [1, 21]: 76.7% and 76.7 ± 2.5%
- Mean small pore diameter [1, 22]: 7.1 μm and 7.1 ± 1.4 μm
- Porosity [1, 22]: 87.7 ± 2.0%
- Mean large pore diameter [1, 23]: 16.4 ± 2.8 μm
- Mean small pore diameter [1, 23]: 2.5 μm and 2.5 ± 0.6 μm
- Porosity [1, 23]: 85.3 ± 1.2%
- HRP burst release [4, 13]: 37%
- HRP burst release ([4]; as reference formulation A but 2% w/w HRP): 74%
- HRP burst release [4, 15]: 65%
- HRP burst release [4, 17]: 47%
- HRP burst release rate, 75/25 PDLGA compared to 50/50 PDLGA films [4, 18]: little difference in the burst release rates
- HRP burst release [4, 19]: 58%
- HRP burst release [4, 21]: 48%
- HRP burst release [4, 22]: 73%
- HRP burst release [4, 23]: 42%
- HRP burst release ([4]; reference formulation A: 50/50 PDLGA 83 kDa, 17.5% w/v polymer, 1% w/w HRP, O:A 4:1): 57%
- Encapsulation efficiency ([3]; HRP film, 0.5 w/w HRP): 89%
- Encapsulation efficiency ([3]; HRP film, 1 w/w HRP, 17.5% w/v polymer (reference formulation A)): 87%
- Encapsulation efficiency ([3]; HRP film, 2 w/w HRP): 86%
- Encapsulation efficiency ([3]; HRP film, 15.5% w/v polymer): 90%
- Encapsulation efficiency ([3]; HRP film, 25% w/v polymer): 85%

- time at which the drug was almost fully released [2]: 21 days
- Mean pore diameter [1, 6]: 1.1 ± 0.3 μm
- Porosity [1, 6]: 88.1 ± 1.2%
- Mean pore diameter [1, 9]: 1.9 ± 0.5 μm
- Porosity [1, 9]: 83.7 ± 2.4%
- Mean pore diameter [1, 10]: 0.8 ± 0.2 μm
- Porosity [1, 10]: 81.7 ± 2.5%
- Mean pore diameter [1, 11]: 2.2 ± 0.9 μm
- Porosity [1, 11]: 81.9 ± 2.6%
- Encapsulation efficiency [3, 6]: 71.3 ± 0.5%
- Encapsulation efficiency [3, 9]: 74.6 ± 4.2%
- Encapsulation efficiency [3, 10]: 78.1 ± 2.1%
- Encapsulation efficiency [3, 11]: 69.6 ± 1.0%
Compound: CC(=O)O.NCc1ccc(S(N)(=O)=O)cc1 [Mafenide acetate, 4-Aminomethylbenzenesulfonamide acetate salt]
